Earlier results in US20180228866A1, “COMPOSITIONS” (Sigmoid Pharma Limited, priority 2015, published 2018).

Test system: serum TNF-α, IFN-γ, IL-6
Details: within 1-4 hours after injection

Question: With “OKT3: anti-CD3 mAb, administered as a systemic immunosuppressive agent during organ transplantation” as the substance, how does the “serum levels of proinflammatory cytokines such as TNF-α, IFN-γ, and IL-6” value read?
Answer: markedly elevated
